Measurements as given in publication PMC5096451.

Target: RhoA (UniProt P61586)
Sequence (P61586 whole entry): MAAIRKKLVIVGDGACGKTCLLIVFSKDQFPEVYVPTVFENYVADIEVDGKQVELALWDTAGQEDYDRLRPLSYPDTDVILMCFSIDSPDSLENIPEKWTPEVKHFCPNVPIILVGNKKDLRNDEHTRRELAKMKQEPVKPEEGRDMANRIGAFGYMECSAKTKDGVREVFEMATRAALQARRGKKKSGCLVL

Chain of SseJ (Q9FD10 whole entry): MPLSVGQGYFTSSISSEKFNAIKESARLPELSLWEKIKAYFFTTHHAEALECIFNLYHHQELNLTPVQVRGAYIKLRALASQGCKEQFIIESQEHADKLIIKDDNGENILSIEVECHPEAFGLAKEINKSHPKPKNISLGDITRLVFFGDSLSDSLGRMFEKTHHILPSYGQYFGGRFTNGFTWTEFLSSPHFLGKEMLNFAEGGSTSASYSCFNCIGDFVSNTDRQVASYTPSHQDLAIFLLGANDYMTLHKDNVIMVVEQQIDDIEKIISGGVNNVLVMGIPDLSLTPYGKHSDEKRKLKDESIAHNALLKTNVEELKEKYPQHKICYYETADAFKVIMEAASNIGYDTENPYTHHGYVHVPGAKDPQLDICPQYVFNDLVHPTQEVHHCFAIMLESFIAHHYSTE

SseJ (from UniProt Q9FD10 1-408) (enzyme)
SseJ lipase stimulation (PNPP), 200 nM SseJ and 200 nM RhoA-GDP: 0.21 mAU/min | SseJ lipase stimulation (PNPP), 200 nM SseJ and 200 nM RhoA-GTPγS: 1.2 mAU/min
